Our source for the percent of parent values is paper PMC3948114.

The assay deals with HLA-B*27:05-KK10 tetramer. As to the kind of experiment: tetramer staining of transfected HEK293 cells. The conditions noted are these: 0.2 μg tetramer; parent: est. 100; read off a plot.

Turning to “FLAG-tagged 3DL1*001 (from UniProt P43629) Y200A”, the percent of parent is 8 % of ·001.

For the substance “FLAG-tagged 3DL1*001 (from UniProt P43629) P199A”, the percent of parent was 10 % of ·001.

Consider “FLAG-tagged 3DL1*001 (from UniProt P43629) E282A”, for which the percent of parent is 22 % of ·001.

For the substance “FLAG-tagged 3DL1*001 (from UniProt P43629) M165A”, the percent of parent is 52 % of ·001.

For the substance “FLAG-tagged 3DL1*001 (from UniProt P43629) L166A”, the percent of parent was 180 % of ·001.

For “FLAG-tagged 3DL1*001 (from UniProt P43629) L166V”, the percent of parent was 20 % of ·001.

As to “FLAG-tagged 3DL1*001 (from UniProt P43629) Y200F”, the percent of parent is 36 % of ·001.

With “FLAG-tagged 3DL1*001 (from UniProt P43629) D230A”, the percent of parent is 30 % of ·001.

Take “FLAG-tagged 3DL1*001 (from UniProt P43629) E282Q”: the percent of parent is 44 % of ·001.

With “FLAG-tagged 3DL1*001 (from UniProt P43629) A167G”, the percent of parent is 76 % of ·001.
